Laboratory results: US20230093512A1
pEC50, pKd: −log10 of the molar value. Where two headings read alike, the source gives them in different places.

Assays:
[1] = target: TGF-β2; experiment: ELISA: TGF-β2 coated on the plate, HRP-conjugated 2nd antibody, OD450
[2] = target: TGF-β1; experiment: ELISA: TGF-β1 coated on the plate, HRP-conjugated 2nd antibody, OD450
[3] = target: TGF-β3; experiment: SPR, TGFβ ligand amine-coupled to chip, fusion protein as analyte, 25 °C, HBS-EP
[4] = target: TGF-β2; experiment: as above
[5] = target: TGF-β1; experiment: as above
[6] = target: TGF-β1; experiment: ELISA: TGF-β1 coated on the plate, HRP-conjugated 2nd antibody, OD450; remark: listed apart in the source
[7] = target: human PD-L1 (PD-L1 aAPC/CHO-K1 cells) (human) (UniProt Q9NZQ7)
[8] = target: TGF-β3; experiment: ELISA: TGF-β3 coated on the plate, HRP-conjugated 2nd antibody, OD450
[9] = target: human PD-L1 (PD-L1 aAPC/CHO-K1 cells) (human) (UniProt Q9NZQ7); remark: listed apart in the source
[10] = target: TGF-β2; experiment: ELISA: TGF-β2 coated on the plate, HRP-conjugated 2nd antibody, OD450; remark: listed apart in the source
[11] = target: PD-L1 that is over expressed on CHO-K1 cells (Homo sapiens (Human)) (UniProt Q9NZQ7); experiment: flow cytometry (FACS) on CHO-K1 cells over expressing PD-L1, geometric mean
[12] = target: TGF-β3; experiment: ELISA: TGF-β3 coated on the plate, HRP-conjugated 2nd antibody, OD450; remark: listed apart in the source

Sequence of TGF-β2 (P61812 303-414): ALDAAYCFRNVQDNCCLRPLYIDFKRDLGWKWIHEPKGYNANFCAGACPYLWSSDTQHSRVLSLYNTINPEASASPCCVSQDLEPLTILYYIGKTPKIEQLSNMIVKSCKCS
Sequence of TGF-β3 (P10600 301-412): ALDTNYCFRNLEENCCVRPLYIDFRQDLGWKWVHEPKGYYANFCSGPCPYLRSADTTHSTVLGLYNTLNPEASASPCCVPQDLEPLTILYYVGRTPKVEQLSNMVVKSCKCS
Sequence of TGF-β1 (P01137 279-390): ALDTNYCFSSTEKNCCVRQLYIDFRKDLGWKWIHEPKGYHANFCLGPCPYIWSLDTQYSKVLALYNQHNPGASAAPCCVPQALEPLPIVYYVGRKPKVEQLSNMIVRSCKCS
Sequence of human PD-L1 (PD-L1 aAPC/CHO-K1 cells) (human) (Q9NZQ7 19-290): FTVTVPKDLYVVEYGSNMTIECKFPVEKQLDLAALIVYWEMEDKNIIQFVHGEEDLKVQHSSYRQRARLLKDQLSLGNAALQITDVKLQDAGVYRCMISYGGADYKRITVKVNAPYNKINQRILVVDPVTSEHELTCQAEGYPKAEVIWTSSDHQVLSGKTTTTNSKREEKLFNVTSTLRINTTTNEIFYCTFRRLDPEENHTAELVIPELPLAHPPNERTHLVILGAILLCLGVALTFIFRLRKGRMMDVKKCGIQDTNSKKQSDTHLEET
Sequence of PD-L1 that is over expressed on CHO-K1 cells (Homo sapiens (Human)) (Q9NZQ7 19-290 limits assumed): as the sequence (Q9NZQ7 19-290) above

EC50 [1] [µg/mL]	EC50 [2] [µg/mL]	pKd [3]	koff [3] [s⁻¹]	kon [3] [M⁻¹ s⁻¹]	pKd [4]	koff [4] [s⁻¹]	kon [4] [M⁻¹ s⁻¹]	pKd [5]	koff [5] [s⁻¹]	kon [5] [M⁻¹ s⁻¹]	EC50 [6] [µg/mL]	EC50, luminescence (RLU) of PD-1 effector cells co-cultured with PD-L1 aAPC/CHO-K1 cells, PD-1/PD-L1 blockade bioassay [7] [nM]	EC50 [8] [µg/mL]	EC50, luminescence (RLU) of PD-1 effector cells co-cultured with PD-L1 aAPC/CHO-K1 cells, PD-1/PD-L1 blockade bioassay [9] [nM]	EC50 [10] [µg/mL]	pEC50 [11]	EC50 [12] [µg/mL]	Substance
0.432	0.255	8.99	0.00032	314000	8.34	0.00132	286000	9.03	0.000315	334000	0.327	0.77	0.307	0.852	0.348	9.46	0.278	M7824
														0.398				Tecentriq (antibody)
